B1: Phospholamban (Homo sapiens), P26678 (parent)
chain: MEKVQYLTRSAIRRASTIEMPQQARQKLQNLFINFCLILICLLLICIIVMLL
partner: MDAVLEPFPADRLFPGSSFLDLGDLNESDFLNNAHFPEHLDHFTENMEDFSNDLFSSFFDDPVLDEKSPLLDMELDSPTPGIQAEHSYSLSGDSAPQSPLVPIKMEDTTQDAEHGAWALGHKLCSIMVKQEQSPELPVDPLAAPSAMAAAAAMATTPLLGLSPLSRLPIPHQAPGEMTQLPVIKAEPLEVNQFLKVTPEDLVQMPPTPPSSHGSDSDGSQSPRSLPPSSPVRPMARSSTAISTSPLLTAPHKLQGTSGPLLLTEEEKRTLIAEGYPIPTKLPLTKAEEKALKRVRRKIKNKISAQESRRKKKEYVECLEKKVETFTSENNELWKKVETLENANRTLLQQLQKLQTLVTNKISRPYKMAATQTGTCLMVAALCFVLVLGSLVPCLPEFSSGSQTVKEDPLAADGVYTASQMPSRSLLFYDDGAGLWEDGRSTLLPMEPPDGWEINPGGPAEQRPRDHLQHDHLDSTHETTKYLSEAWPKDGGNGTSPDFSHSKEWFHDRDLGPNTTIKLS
B2: U4/U6 small nuclear ribonucleoprotein Prp31 (Homo sapiens), Q8WWY3 (parent)
chain: MSLADELLADLEEAAEEEEGGSYGEEEEEPAIEDVQEETQLDLSGDSVKTIAKLWDSKMFAEIMMKIEEYISKQAKASEVMGPVEAAPEYRVIVDANNLTVEIENELNIIHKFIRDKYSKRFPELESLVPNALDYIRTVKELGNSLDKCKNNENLQQILTNATIMVVSVTASTTQGQQLSEEELERLEEACDMALELNASKHRIYEYVESRMSFIAPNLSIIIGASTAAKIMGVAGGLTNLSKMPACNIMLLGAQRKTLSGFSSTSVLPHTGYIYHSDIVQSLPPDLRRKAARLVAAKCTLAARVDSFHESTEGKVGYELKDEIERKFDKWQEPPPVKQVKPLPAPLDGQRKKRGGRRYRKMKERLGLTEIRKQANRMSFGEIEEDAYQEDLGFSLGHLGKSGSGRVRQTQVNEATKARISKTLQRTLQKQSVVYGGKSTIRDRSSGTASSVAFTPLQGLEIVNPQAAEKKVAEANQKYFSSMAEFLKVKGEKSGLMST
partner: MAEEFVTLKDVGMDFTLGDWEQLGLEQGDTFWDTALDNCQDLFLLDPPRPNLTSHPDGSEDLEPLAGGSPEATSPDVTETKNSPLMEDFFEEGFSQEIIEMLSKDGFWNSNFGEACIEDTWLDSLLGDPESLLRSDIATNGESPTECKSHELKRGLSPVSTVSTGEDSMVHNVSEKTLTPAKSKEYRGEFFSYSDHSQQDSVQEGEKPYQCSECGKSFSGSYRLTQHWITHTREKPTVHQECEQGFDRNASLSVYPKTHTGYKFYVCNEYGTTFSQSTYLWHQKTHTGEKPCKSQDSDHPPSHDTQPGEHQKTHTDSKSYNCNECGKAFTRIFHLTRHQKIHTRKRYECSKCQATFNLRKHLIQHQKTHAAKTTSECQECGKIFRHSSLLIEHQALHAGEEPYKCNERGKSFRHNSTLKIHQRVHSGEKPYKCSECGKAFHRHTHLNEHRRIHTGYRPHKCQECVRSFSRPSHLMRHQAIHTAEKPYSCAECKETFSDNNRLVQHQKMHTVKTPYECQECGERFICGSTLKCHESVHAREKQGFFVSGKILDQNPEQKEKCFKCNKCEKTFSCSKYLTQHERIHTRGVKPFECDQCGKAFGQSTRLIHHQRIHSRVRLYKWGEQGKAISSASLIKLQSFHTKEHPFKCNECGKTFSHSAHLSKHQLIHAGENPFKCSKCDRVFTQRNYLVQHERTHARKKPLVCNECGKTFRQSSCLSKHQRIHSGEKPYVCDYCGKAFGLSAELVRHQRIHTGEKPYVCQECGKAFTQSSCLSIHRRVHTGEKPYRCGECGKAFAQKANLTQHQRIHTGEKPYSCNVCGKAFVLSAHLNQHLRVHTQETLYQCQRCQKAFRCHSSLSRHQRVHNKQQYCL
B3: Methylmalonyl-CoA epimerase, mitochondrial (Homo sapiens), Q96PE7 (parent)
chain: MARVLKAAAANAVGLFSRLQAPIPTVRASSTSQPLDQVTGSVWNLGRLNHVAIAVPDLEKAAAFYKNILGAQVSEAVPLPEHGVSVVFVNLGNTKMELLHPLGRDSPIAGFLQKNKAGGMHHICIEVDNINAAVMDLKKKKIRSLSEEVKIGAHGKPVIFLHPKDCGGVLVELEQA
B4: Proton-coupled zinc antiporter SLC30A8 (Homo sapiens), Q8IWU4 (parent)
chain: MEFLERTYLVNDKAAKMYAFTLESVELQQKPVNKDQCPRERPEELESGGMYHCHSGSKPTEKGANEYAYAKWKLCSASAICFIFMIAEVVGGHIAGSLAVVTDAAHLLIDLTSFLLSLFSLWLSSKPPSKRLTFGWHRAEILGALLSILCIWVVTGVLVYLACERLLYPDYQIQATVMIIVSSCAVAANIVLTVVLHQRCLGHNHKEVQANASVRAAFVHALGDLFQSISVLISALIIYFKPEYKIADPICTFIFSILVLASTITILKDFSILLMEGVPKSLNYSGVKELILAVDGVLSVHSLHIWSLTMNQVILSAHVATAASRDSQVVRREIAKALSKSFTMHSLTIQMESPVDQDPDCLFCEDPCD
partner: B1 partner
B5: Vitamin D3 receptor (Homo sapiens), P11473 (parent)
chain: MEAMAASTSLPDPGDFDRNVPRICGVCGDRATGFHFNAMTCEGCKGFFRRSMKRKALFTCPFNGDCRITKDNRRHCQACRLKRCVDIGMMKEFILTDEEVQRKREMILKRKEEEALKDSLRPKLSEEQQRIIAILLDAHHKTYDPTYSDFCQFRPPVRVNDGGGSHPSRPNSRHTPSFSGDSSSSCSDHCITSSDMMDSSSFSNLDLSEEDSDDPSVTLELSQLSMLPHLADLVSYSIQKVIGFAKMIPGFRDLTSEDQIVLLKSSAIEVIMLRSNESFTMDDMSWTCGNQDYKYRVSDVTKAGHSLELIEPLIKFQVGLKKLNLHEEEHVLLMAICIVSPDRPGVQDAALIEAIQDRLSNTLQTYIRCRHPPPGSHLLYAKMIQKLADLRSLNEEHSKQYRCLSFQPECSMKLTPLVLEVFGNEIS
B6: Tyrosine-protein kinase BTK (Homo sapiens), Q06187 (parent)
chain: MAAVILESIFLKRSQQKKKTSPLNFKKRLFLLTVHKLSYYEYDFERGRRGSKKGSIDVEKITCVETVVPEKNPPPERQIPRRGEESSEMEQISIIERFPYPFQVVYDEGPLYVFSPTEELRKRWIHQLKNVIRYNSDLVQKYHPCFWIDGQYLCCSQTAKNAMGCQILENRNGSLKPGSSHRKTKKPLPPTPEEDQILKKPLPPEPAAAPVSTSELKKVVALYDYMPMNANDLQLRKGDEYFILEESNLPWWRARDKNGQEGYIPSNYVTEAEDSIEMYEWYSKHMTRSQAEQLLKQEGKEGGFIVRDSSKAGKYTVSVFAKSTGDPQGVIRHYVVCSTPQSQYYLAEKHLFSTIPELINYHQHNSAGLISRLKYPVSQQNKNAPSTAGLGYGSWEIDPKDLTFLKELGTGQFGVVKYGKWRGQYDVAIKMIKEGSMSEDEFIEEAKVMMNLSHEKLVQLYGVCTKQRPIFIITEYMANGCLLNYLREMRHRFQTQQLLEMCKDVCEAMEYLESKQFLHRDLAARNCLVNDQGVVKVSDFGLSRYVLDDEYTSSVGSKFPVRWSPPEVLMYSKFSSKSDIWAFGVLMWEIYSLGKMPYERFTNSETAEHIAQGLRLYRPHLASEKVYTIMYSCWHEKADERPTFKILLSNILDVMDEES
B7: Glial cell line-derived neurotrophic factor (Homo sapiens), P39905 (parent)
chain: MKLWDVVAVCLVLLHTASAFPLPAGKRPPEAPAEDRSLGRRRAPFALSSDSNMPEDYPDQFDDVMDFIQATIKRLKRSPDKQMAVLPRRERNRQAAAANPENSRGKGRRGQRGKNRGCVLTAIHLNVTDLGLGYETKEELIFRYCSGSCDAAETTYDKILKNLSRNRRLVSDKVGQACCRPIAFDDDLSFLDDNLVYHILRKHSAKRCGCI

Variants of: B1
Settings: with cr3l1_human CREB3L1, Q96BA8

Row | Variant | effect of a mutation on the interaction
1 | R9C | with no effect

Variants of: B2
Settings: with zn473_human ZNF473, Q8WTR7

Row | Variant | effect of a mutation on the interaction
2 | L107V | with no effect

Variants of: B3
Settings: with AGTRAP
Target sequence in this assay (Q6RW13 other isoform, or with tags, fused parts or gaps): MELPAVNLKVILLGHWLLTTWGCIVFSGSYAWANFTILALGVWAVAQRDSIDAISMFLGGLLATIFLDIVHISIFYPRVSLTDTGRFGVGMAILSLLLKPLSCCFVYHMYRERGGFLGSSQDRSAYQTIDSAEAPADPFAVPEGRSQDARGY

Row | Variant | effect of a mutation on the interaction
3 | R143H | with no effect
4 | R143C | with no effect
5 | A76V | with no effect

Variants of: B3
Settings: with CMTM5, Q96DZ9-2
Sequence of CMTM5, Q96DZ9-2 (Q96DZ9 other isoform, or with tags, fused parts or gaps): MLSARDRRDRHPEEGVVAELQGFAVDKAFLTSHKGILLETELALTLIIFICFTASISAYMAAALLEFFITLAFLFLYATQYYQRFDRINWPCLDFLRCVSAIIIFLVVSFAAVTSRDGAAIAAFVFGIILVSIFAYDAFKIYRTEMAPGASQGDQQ

Row | Variant | effect of a mutation on the interaction
6 | R143H | with no effect
7 | R143C | with no effect
8 | A76V | with no effect

Variants of: B4
Settings: with cr3l1_human CREB3L1, Q96BA8

Row | Variant | effect of a mutation on the interaction
9 | R325W | disrupting interaction strength
10 | R325Q | with no effect

Variants of: B5
Settings: with meox2_human MEOX2, P50222
Target sequence in this assay (P50222 whole entry): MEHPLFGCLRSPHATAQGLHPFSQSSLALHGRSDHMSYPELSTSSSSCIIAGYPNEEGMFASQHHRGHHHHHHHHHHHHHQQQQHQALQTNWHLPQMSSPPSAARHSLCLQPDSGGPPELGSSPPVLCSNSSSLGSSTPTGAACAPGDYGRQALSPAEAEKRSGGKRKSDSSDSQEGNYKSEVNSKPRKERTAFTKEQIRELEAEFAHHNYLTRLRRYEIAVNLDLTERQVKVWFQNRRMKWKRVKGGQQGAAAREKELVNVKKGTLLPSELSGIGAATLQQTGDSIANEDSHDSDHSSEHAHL

Row | Variant | effect of a mutation on the interaction
11 | I268T | with no effect
12 | G33D | with no effect
13 | E329K | disrupting interaction strength
14 | C190W | disrupting interaction strength

Variants of: B6
Settings: with meox2_human MEOX2, P50222
Target sequence in this assay (P50222 whole entry): as above

Row | Variant | effect of a mutation on the interaction
15 | P565L | disrupting interaction strength

Variants of: B7
Settings: with AGTRAP
Target sequence in this assay (Q6RW13 other isoform, or with tags, fused parts or gaps): as the sequence (Q6RW13 other isoform, or with tags, fused parts or gaps) above

Row | Variant | effect of a mutation on the interaction
16 | R93W | with no effect
17 | P21S | with no effect
18 | D150N | with no effect
19 | T154S | with no effect
